The values below come from patent publication US20030079244A1, “Agent for treatment of exocrine gland disorders and transgenic mouse useful for screening the same” (R-TECH UENO, LTD., priority 1997, published 2003).

Data set [1] has as its system salivary gland epithelial cells. Description: Cytotoxicity test against salivary gland epithelial cells (51Cr release). The data set is classed as cell-based. The following applies: CD4-positive T-cell effector cells treated with mouse IL-10 (0.1 mg/ml) with or without anti-FASL antibody (10 μg/ml); effector:target 20-fold; 4 hours at 37° C.; 51Cr in supernatant. An excerpt:
Cytotoxicity test against salivary gland epithelial cells
Spleen isolated from a B6 mouse was chopped into small pieces, the cells were collected with a syringe having 22-gage injection needle and the collected cells were passed through a meshed screen to obtain cell suspension. CD4-positive T-cells were isolated from the cell suspension by means of dynabeads to provide effector cells.
Salivary gland of the same mouse as above was immersed in DMEM medium containing 10% fetal calf serum supplemented with collagenase (750 units/ml), EDTA (0.76 mg/ml) and hyaluronidase type IV (500 units/ml) to isolate the salivary gland tissue, and the obtained cells were incubated in DMEM medium containing 10% fetal calf serum for 10 to 14 days in a CO2 incubator. The cultured cells were then analyzed with flow-cytometry and were confirmed that 85-95% of them were epithelial cells, and were used as target cells.
The target cells were labeled with 51Cr. Half of the effector cells were treated with mouse IL-10 (0.1 mg/ml) alone, whereas the other half were treated with mice IL-10 (0.1 mg/ml) and anti mice Fas ligand (FASL) neutralizing antibody (10 μg/ml) . […]
The amount of 51Cr in the supernatant of the respective culture was measured and the cytotoxic ratio was calculated by subtracting the 51Cr amount of the target cells cultured without effector cells.

Data set [2] deals with normal mouse spleen cells. Description: Effect of IL-10 on the expression of Fas ligand (flow-cytometry). The data set is classed as cell-based. The following applies: treated in vitro, analyzed 48 hours after the treatment; versus non-stimulated cells. The method, then: In order to study the role of IL-10 in Fas-ligand expression, normal mouse spleen cells were isolated, treated with mouse recombinant IL-10 in vitro and then analyzed with flow-cytometry 48 hours after the treatment.

B1: IL-10: mouse interleukin-10 used to treat effector cells and spleen cells (protein, UniProt P18893 19-178, looked up)
Interleukin-10: SRGQYSREDNNCTHFPVGQSHMLLELRTAFSQVKTFFQTKDQLDNILLTDSLMQDFKGYLGCQALSEMIQFYLVEVMPQAEKHGPEIKEHLNSLGEKLKTLRMRLRRCHRFLPCENKSKAVEQVKSDFNKLQDQGVYKAMNEFDIFINCIEAYMMIKMKS
Regarding B1, the cytotoxic ratio in data set [1] was 29.5%. Also, the Fas ligand expression result in data set [2] is given as “Significantly higher amount of Fas ligand expression”.
